Results: US20080279865A1, “Therapy of Prostate Cancer With Ctla-4 Antibodies and Hormonal Therapy” (Pfizer, Inc., Pfizer Products, Inc., priority 2005, published 2008)

Experiments:
prostate cancer = test: Neoadjuvant ticilimumab plus leuprolide and bicalutamide before prostatectomy in high risk prostate cancer; type: in vivo, human
From the text: Patients with prostate cancer who are eligible for radical prostatectomy and who have an intermediate or high risk of recurrence according to current medical standards are candidates for antibody-hormonal combination neoadjuvant therapy. The target population for this study is defined using the risk of biochemical recurrence instead of the probability of pathologically confined cancer. This approach is supported by the observation that patients with disease confined to the prostate may have a biochemical recurrence despite “definitive” local treatment. Therefore, this patient definition is more comprehensive. Considering recent data showing that a time to PSA failure of less than 2 years predicts for distant failure, patients who are at high risk for early PSA failure are candidates for neoadjuvant (and adjuvant) antibody-hormonal combination therapy as disclosed herein.
Pre-operatively, approximately after the end of the last cycle of antibody-hormone combination therapy and prior to scheduled prostatectomy, the following evaluations are completed: any adverse events, ECOG PS, vital signs and weight, physical examination (including signs of autoimmunity), ECG, and DRE. Samples for hematology and chemistry panels, along with PT, APTT, CRP and PSA are obtained.
Post-operative assessments are performed approximately two weeks following surgery. The evaluation includes physical examination (including autoimmunity), vital signs, ECOG performance status, body weight, hematology, and chemistry panels, PT, APTT, TSH, T3, T4, amylase, lipase, CRP, urinalysis. Additional samples are obtained for autoantibody panel, PSA, testosterone, HAH titer and PK. All patients are assessed for pathological assessment of the surgical specimen and adverse events.
The patient is premedicated with antihistamine (H1) at least one half hour prior to infusion of anti-CTLA4, but premedication is not required. Patients were administered leuprolide (LUPRON) and bicalutamide (CASODEX) in combination with an anti-CTLA4 antibody (ticilimumab). More specifically, on day 1 (D1), the patient was administered a single IV infusion (100 mL/hr) of anti-CTLA4 antibody at a dose of 1 mg/kg, 3 mg/kg, or 6 mg/kg, in combination with a 7.5 mg IM injection of leuprolide (LUPRON DEPOT). A minimum of 3 patients were administered each antibody dose. The study was amended to reinitiate dose escalation at a lower dose level, i.e., 1 mg/kg. Three patients received that dose level, and are undergoing surgery (after 3 months of combination therapy). Dose escalation continued to 3 mg/kg. Dose escalation is ongoing at 6 mg/kg and 10 mg/kg.
Bicalutamide (CASODEX) was administered orally, in tablet form, at a dose of 50 mg, once per day for the first fourteen days commencing on day 1 (D1). Preferably, bicalutamide was taken at the same time each day on days D1-D14, and a patient medication diary was used to record any interruption of bicalutamide dosing.
Prophylactic anti-emetics and anti-diarrheals were given as appropriate. The treatment was repeated after 28 days with a […] of antibody and 7.5 mg IM injection of LUPRON DEPOT for a maximum of three cycles (D1, D28, and D56) preceding surgery.

[1] = Single agent studies of ticilimumab in melanoma (diarrhea); type: in vivo, human
From the text: In contrast, in the present study, 2 out of 3 patients treated with the combination of hormonal therapy and CTLA4 blockade had grade 3 diarrhea. […] Diarrhea is considered to be pharmacologically mediated in that it is likely related to the mechanism of action of ticilimumab. […] A possible correlation between tumor response in melanoma and putative “autoimmune breakthrough events” has been reported for single agent CTLA4 blockade in the absence of any other therapy (see Attia et al., J Clin Oncol. 23(25):6043-6053 (2005)).

Substance: ticilimumab: human IgG2 anti-CTLA4 antibody; heavy chain SEQ ID NO:26, light chain SEQ ID NO:32
- diarrhea in a patient (prostate cancer; 3 mg/kg ticilimumab and hormonal therapy): prolonged diarrhea
- prostatectomy specimen findings (prostate cancer; 6 mg/kg, patient 1005-1004, after three months of antibody therapy and hormonal therapy (leuprolide and bicalutamide), FIG. 4): detectable tumor regression and signs of an inflammatory infiltrate around tumor cells
- patients who experienced diarrhea and did not complete the study (prostate cancer; cohort of three patients at 6 mg/kg with hormonal therapy): two
- severity (duration and magnitude) of the diarrhea versus any other study at any dose level (prostate cancer; combination of hormonal therapy and CTLA4 blockade): significantly higher
- patients with grade 3 diarrhea (prostate cancer; combination of hormonal therapy and CTLA4 blockade, cohort of three patients at 6 mg/kg): 2 out of 3
- treatment effect in prostatectomy specimens (prostate cancer; several patients treated with 1 mg/kg and 6 mg/kg, with androgen blockade): regression of carcinoma and benign prostate glandular tissue, lymphocytic infiltrates (see FIG. 4), and signs of acute and chronic inflammation
- patients with diarrhea ([1]; multiple doses of 6 mg/kg): none
- patients with diarrhea grade 3 ([1]; single dose of 6 mg/kg): 1 out of three
